Source: publication PMC3467076

Biological target: T1, SNI1 (Arabidopsis thaliana, UniProt Q9SWA6 1-432)
T1 sequence: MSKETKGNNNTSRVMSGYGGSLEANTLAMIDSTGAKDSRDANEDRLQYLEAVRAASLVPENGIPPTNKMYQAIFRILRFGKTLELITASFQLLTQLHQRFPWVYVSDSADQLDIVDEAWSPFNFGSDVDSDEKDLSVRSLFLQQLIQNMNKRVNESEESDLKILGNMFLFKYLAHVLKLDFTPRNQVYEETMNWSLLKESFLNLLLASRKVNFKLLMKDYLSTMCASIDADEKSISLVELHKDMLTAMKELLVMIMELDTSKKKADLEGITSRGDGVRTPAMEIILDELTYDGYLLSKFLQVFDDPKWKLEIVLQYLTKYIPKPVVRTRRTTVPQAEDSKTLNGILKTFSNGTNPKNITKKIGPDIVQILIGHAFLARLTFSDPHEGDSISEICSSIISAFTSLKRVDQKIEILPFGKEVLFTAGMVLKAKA
Test: EMSA

B1: E0-1-1 (dsDNA)
DNA 1: TAATAATGCTTAGTTATAAATTACT
DNA 2: AGTAATTTATAACTAAGCATTATTA
Does B1 bind?
Result: no binding
